Experimental data from the DeepSol protein solubility set.

Experiment: soluble on expression in E. coli; label from the status in PepcDB or PDB records

Row | Sequence | soluble on expression in E. coli
1 | MIGMVNVQCDTPLDYYATAPNLLSRDTSVRKRGDSESANASRHNSTKRTPSWRPLFTGQGKKKSSKPKYLQDGRKMTEDGHDEPNKLWEELFLRSFAHKIEQEISSPSPLEAHKNLNSELSKLNIQDKSFYRSTYSLVSPTRIENTDFEELERIENQEKTQDDSKPNRSNSSTERPSSQICSVFLPFIKTIKGNKKKNSITSVNNNTKNS | not soluble
2 | GSHMTEAEYLANYDPKAFKAQLLTVDAVLFTYHDQQLKVLLVQRSNHPFLGLWGLPGGFIDETCDESLEQTVLRKLAEKTAVVPPYIEQLCTVGNNSRDARGWSVTVCYTALMSYQACQIQIASVSDVKWWPLADVLQMPLAFDHLQLIEQARERLTQKALYSLVPGFALSEPFTLPELQHVHEVLLGKPIQGKSFRRRVEQADLLIDTGLKRTERGRPANLYCLKPDTASYRFLRNLEC | soluble
3 | MAHHHHHHMFQRARFLLLPIDDVLPAGSRWSRVTALPTSHAHPSGASRASRTGPVTANTTSALPPTPYITFIPTLHVASVKFYDAVLDYMRESVEKNSNVVVLLEGICDNKEGRIQQMDEYMQISRSEELRAAMLEKAEKNTLYNDETIRTICDELAVNYDVLSRELETVRLQECYLRPKMAALMGKNLCNEADIDMEEVEALMLEGDNNDHSGSYGACGSGSVVPITSIGSHPAVRRSREMKVARKARATCVDWLKHGVAGEVILPWGIYHVEGIQRNVLSLNAQDEGIVFVESGNDIRHVPFGIHRDLLVL | not soluble
4 | MGSDKIHHHHHHMIILTRKDLDELLKAEIAVSSVKEAFKLHYQKKVDQPQRLVMSVKGNWWGLMPSSTDYSFVTKIVNVIPENKERGLPLVQGVVILMSPDTGEILAIIDGTTLTAIRTAAASILSTELAINGRNIGILGIIGAGTEAYYHAKLALEYFKVQKLYISARKSHFELAKRVGGEATDLETLLKNSDTIFATTSSNFPVVLGKYLKDVFHLSSIGAHTPDSRELDDDTIIKVKSYIVDSLEAVSKESGDYIIPKQRGLLENKMIKELGEIIEKGIKIERPSLFKTVGIAVEDNITAHIAYQEALRRGIGFNVSI | not soluble
5 | MSLNGPLKIGYYKIGAAYRDGKGYDVDMVRELARRLGCPIANETELPRLRALKMLETGQIDVSASTLATPDRLQYAWIYQYNHAKNMVLLNPAIQARTLATLLEDPALRWGAIRGYHHGPSQDKLLEELNARHKVVIANDEDDLYKMLGNGVVTAVFAQPFSYGRWLRELPNPNQIVVLDLYPETDMVASGLALSKARFSREAAEKWHQELLKMYQDGSLYDIMRRYLNESAARQMMQKPIEEGHHHHHH | soluble
6 | MGAFFVGAIWLTAAEAFCPAPKGLLPATVLRVVDGDTLHLKDGRRLRMIGLNAPELAGKGRPAEPFAEAARQRLRQLVAQSGGRVGLLPGRERQDRYGRVLAHVYGVTGINFEARLIAEGLAYRIAVLPNVALASCQKAAENHARRAGLGLWRRSPVLKAQQIHRAGFALFEGRVSRVQRNRGGLWITLQGQVVLRIAPNVLRRFDRRLLSGLSGRRIEARGWVVDRSRQPGRQSAHPRWMLSVTDPSMLGLILEHHHHHH | not soluble
7 | MSLYVPGKQVTLAHIIASPNKEIYTKLGLPEGTSNALGILTITPSEAAIIAVDIATKSGDIQIGFIDRFSGSVVISGDVSSVEAALQAVIEGLQQILNFSVTCKEGHHHHHH | not soluble
8 | MTKSKIIEIGPLVPAFEEEKIVILFGPTATNELREISVIHEFEAAPQSALSKGNTLQIGDQVYIIEEVGTEANKNLEELGHISIYFRSGQNEVLPGAIVVSPEVFPTLAIGDTIQ | not soluble
9 | MIPVERHQQILALIAERGAVSINELTERLGVSHMTVRRDVQKLEQDGLLLSVSGGVRSPERLATEPSHQDKSVMFSQQKAAMGKLAAQHIPLNSCIYLDAGTTTLSLARELAERDDLLIVTNDFAIAAFLIESSQCRMIHTGGTLCRENQSCIGEAVAQALRNLFIDIAFISASSWSLRGLSTPNEDKVVVKRAAVEASRKRVLLCDTSKYGRIATHLATPLDVFDSIITDDGLPVAAKEALSKMGVEVLVAG | not soluble
10 | MPNQGSSNKVYVIGVGMTKFEKPGRREGWDYPDMARESGTKALRDAGIDYREVEQGYVGYVYGESTSGQRALYELGMTGIPIVNVNNNCSTGSTALYLGAQAIRGGLADCVLALGFEKMQPGALGGGADDRESPLGRHVKALAEIDEFGFPVAPWMFGAAGREHMKKYGTTAEHFAKIGYKNHKHSVNNPYAQFQDEYTLDDILASKMISDPLTKLQCSPTSDGSAAVVLASEDYLANHNLAGRAVEIVGQAMTTDFASTFDGSARNIIGYDMTVQAAQRVYQQSGLGPKDFGVIELHDCFSANELLLYEALGLCGPGEAPELIDDNQTTYGGRWVVNPSGGLISKGHPLGATGLAQCAELTWQLRGTAEARQVDNVTAALQHNIGLGGAAVVTAYQRAER | not soluble
11 | SGVDRVLVKSEAWADNRLPLTEAELALIATPPEDSDMASLQQQRQEQNYFVRLGSLSERLRNHAYEHSLGKLQNARQKAQETLQQLTSVLGLMESVKQGVDQRLGEGQEKLHQMWLSWNQKTPQDAEKDPAKPEQVEARALSMFRDITQQLQSMCVALGASIQGLPSHVREQAQQARSQVNDLQATFSGIHSFQDLSAGVLAQTRERIARAREALDNTVEYVAQNTPAMWLVGPFAPGITEKTPEGK | soluble
12 | RQRSLSTSGESLYHVLGLDKNATSDDIKKSYRKLALKYHPDKNPDNPEAADKFKEINNAHAILTDATKRNIYDKYGSLGLYVAEQFGEENVNTYFV | soluble
13 | MAHHHHHHMGDAENNENDKKCLWVPDEEVTNCYSCNAFFNVRVRKHHCRACGNVFCSNCSDNKIKISEYSYAEKVRVCDRCFMERSSPQTLLLQEDLGARKQINQDLKKALSEKMAIVERFKTFLLEFDSEILNNSDHADGSNDVMSLLKRGEKGLKDLNDKIRNYDSIIENQKKELEHLKREKEQKTELNKILHLRNHEIQQKNMNIKNLVKEKNELTLVKEESEGIIHSYKKQVEKLIIRCNQLELEKKRKNYTDQSSNYSFTNSSSQSYMMNSYRLPQNEMSVSYTVAQGPSDDPEEENCCNYCQRRVCSIM | not soluble
14 | MGHHHHHHSHMSEFMQRFADLRDRKAYAEIVDALPYVKLMGTSMAEDEQGELRFELPFLQRNVGNTTLPALHGGLIGGFMESAAMIHLMWNRESLEAPKIVDFSLDYLRPGRPQTLFAQCEITKQGKRVAHVLIEAWQDDRSKPVAVARAHFLLTN | soluble
15 | MSQVQNNSSVSELLASNSGSIKSYRKDEEDPQDRFLKLLVTQMQNQDPLSPMDNAEVTSQMAQISTVSGIDKLNTTLEKLVADSDARRSFEAATMIGRGVLVPGTDMQLENQAAIGGFELAESVDKLTVTVKDSAGITVREIDLGAQAAGVGTFVWDGMANNGNAAADGQYSFALKAIRADKEVSSSALAFGSVSSAQAGKDGALLEVGRLGYVGMDAVKKIF | not soluble
16 | MSSNYIYRTAEKSDFDRILKFLAEHFYHEEPSIRASKIALEEWLPIFGEMTTSSLKLPISTVVTTEDGENIVAVLLNSMWSREEDEERMKHGNGKGDHDTSGYSEALQRFMTIVQKCHDEFWNLAPSDVNLVVYREISSVGKPWQRQGIATKMLSRNMSAARLHNVDGIVSATSSFANQTLLAKNGFQCLKEFPYSGIVSSNGDKLVETDDGSHGMRINFKRIEKSGNGPCEMEPPKSATFQNVATSVSS | soluble
17 | MDRQGFVPAAYVKKLDSGTGKELVLALYDYQEKSPREVTMKKGDILTLLNSTNKDWWKVEVN | soluble
18 | MDAVVATQTPAEVFDVVVVGGGPAGATAATDLARAGRRVALLDPEGRPKPCGGAIPPRLMSEFAIPDDLPCAQVSGARALAPSGRVVDMPITGAVVSMVDRAVFDPWLRARAHQAGACRLHGRFEGFDRQEDGALVVLWRPEGAAVANRIVARYVVGADGARSKVAALAVAGAAPPCVAAYHEIIRAPAAPAASAPTPATAAGPAYDPARCDVIYRGDISPDFYGWIFPHGETLSIGSGTAVKGFSLREAVALLRREAGLDGLEVVRREGAPIPLRPRKRWDNGRDVVLIGDAAGVVAPASGEGIYYAMASGKMAAEALGEALAGAGPAALAQVRRRFLKAHGKTFWSLGLLQRFWYRSDRWRESFVAICADRDVQRLVWQSYLTKDLARGNMGAYMRIFFKDVAHLIGIAKSLEHHHHHH | not soluble
